For 94 variants, protein stability index results are on record in the supplement of paper PMC10567573.

B1: PRKX (parent)
chain: KLLVVDRTRRLGNMKNGANDVKHH
B2: SLC2A12 (parent)
chain: TRIMIGLTLVFFVQITGQPNILFY
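Note: lentivirally expressed fusions sorted by FACS into six bins by GFP to DsRed ratio, PSI derived from sequencing read proportions per bin multiplied by bin number.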

The first data set covers variants of B1. As to the kind of experiment: protein stability index of a GFP-peptide fusion (GPS, HEK-293T) (PSI 1-6); higher = more stable. The note with it: c terminus: a fixed tail appended.
For HLLVVDRTRRLGNMKNGANDVKHH [K1H], the protein stability index amounted to 2.98. Same read-out and setting: the result for YLLVVDRTRRLGNMKNGANDVKHH [K1Y] reads 2.29; that for GLLVVDRTRRLGNMKNGANDVKHH [K1G], 3.38. The same measure, in the same setting: the same measure for ELLVVDRTRRLGNMKNGANDVKHH [K1E]: 2.94.

The variants in the next data set derive from B2. The description is as above. The note with it: c terminus: a fixed tail appended.
As for TRIMIGLTLVFFVQITGQPMILFY [N20M], the protein stability index is 3.84. Still for that read-out and setting: the same measure for TRIMIGLTLVFFVQITGQPIILFY [N20I]: 2.48. Still for that read-out and setting: the result for TRIMIGLTLVFFVQITGQPGILFY [N20G] reads 3.69.

As to TRIMIGLTLVFFVQITGQPPILFY [N20P], the protein stability index was 3.22. For the variant TRIMIGLTLVFFVQITGQPHILFY [N20H], the protein stability index worked out at 3.83.

For the variant TRIMIGLTLVFFVQITGQPAILFY [N20A], the protein stability index worked out at 3.57. For TRIMIGLTLVFFVQITGQPQILFY [N20Q], the protein stability index worked out at 2.61. In the case of TRIMIGLTLVFFVQITGQPVILFY [N20V], the protein stability index came to 2.81. The same measure, in the same setting: the result for TRIMIGLTLVFFVQITGQPKILFY [N20K] reads 4.43; that for TRIMIGLTLVFFVQITGQPEILFY [N20E], 2.12.

As to TRIMIGLTLVFFVQITGQPRILFY [N20R], the protein stability index was 2.67. Still for that read-out and setting: the result for TRIMIGLTLVFFVQITGQPTILFY [N20T] reads 2.22; that for TRIMIGLTLVFFVQITGQPFILFY [N20F], 2.45; that for TRIMIGLTLVFFVQITGQPYILFY [N20Y], 2.54. The same measure, in the same setting: the same measure for TRIMIGLTLVFFVQITGQPCILFY [N20C]: 3.04; for TRIMIGLTLVFFVQITGQPSILFY [N20S]: 2.15.

On to TRIMIGLTLVFFVQITGQPNIFFY [L22F], for which the protein stability index was 2.79. Same read-out and setting: the same measure for TRIMIGLTLVFFVQITGQPNIQFY [L22Q]: 1.83; for TRIMIGLTLVFFVQITGQPNIMFY [L22M]: 2.97; for TRIMIGLTLVFFVQITGQPNIWFY [L22W]: 2.65. In the case of TRIMIGLTLVFFVQITGQPNIDFY [L22D], the protein stability index was found to be 3.15. Same read-out and setting: the result for TRIMIGLTLVFFVQITGQPNISFY [L22S] reads 3.01. In the case of TRIMIGLTLVFFVQITGQPNINFY [L22N], the protein stability index came out at 3.01.

For TRIMIGLTLVFFVQITGQPNIIFY [L22I], the protein stability index amounted to 1.48.

For the variant TRIMIGLTLVFFVQITGQPNIKFY [L22K], the protein stability index came to 1.94. For TRIMIGLTLVFFVQITGQPNICFY [L22C], the protein stability index was determined as 3.96.

With TRIMIGLTLVFFVQITGQPNIHFY [L22H], the protein stability index is 2.65. On the same count and under the same terms, the result for TRIMIGLTLVFFVQITGQPNIEFY [L22E] reads 3.11; that for TRIMIGLTLVFFVQITGQPNILFQ [Y24Q], 2.06. The same measure, in the same setting: the result for TRIMIGLTLVFFVQITGQPNILFS [Y24S] reads 2.89.

In the case of TRIMIGLTLVFFVQITGQPNILFR [Y24R], the protein stability index came to 3.44. Still for that read-out and setting: the same measure for TRIMIGLTLVFFVQITGQPNILFF [Y24F]: 5.58. The same measure, in the same setting: the same measure for TRIMIGLTLVFFVQITGQPNILFM [Y24M]: 4.11; for TRIMIGLTLVFFVQITGQPNILFV [Y24V]: 4.22; for TRIMIGLTLVFFVQITGQPNILFT [Y24T]: 3.56. Same read-out and setting: the result for TRIMIGLTLVFFVQITGQPNILFG [Y24G] reads 2.83.

In the case of TRIMIGLTLVFFVQITGQPNILFW [Y24W], the protein stability index came out at 2.69. Same read-out and setting: the result for TRIMIGLTLVFFVQITGQPNILFN [Y24N] reads 2.88; that for TRIMIGLTLVFFVQITGQPNILFI [Y24I], 3.33. Still for that read-out and setting: the result for TRIMIGLTLVFFVQITGQPNILFA [Y24A] reads 3.48. The same measure, in the same setting: the result for TRIMIGLTLVFFVQITGQPNILFP [Y24P] reads 3.53; that for TRIMIGLTLVFFVQITGQPNILFH [Y24H], 2.29. As to TRIMIGLTLVFFVQITGQPNILFC [Y24C], the protein stability index came out at 3.19. With TRIMIGLTLVFFVQITGQPNILFE [Y24E], the protein stability index is 3.1. Still for that read-out and setting: the same measure for TRIMIGLTLVFFVQITGQPNILHY [F23H]: 2.96; for TRIMIGLTLVFFVQITGQPNILPY [F23P]: 3.99. On the same count and under the same terms, the same measure for TRIMIGLTLVFFVQITGQPNILKY [F23K]: 3.29. TRIMIGLTLVFFVQITGQPNILIY [F23I]: the protein stability index is 3.73. TRIMIGLTLVFFVQITGQPNILEY [F23E]: the protein stability index worked out at 3.67. Regarding TRIMIGLTLVFFVQITGQPNILAY [F23A], the protein stability index worked out at 3.26.

For the variant TRIMIGLTLVFFVQITGQPNILDY [F23D], the protein stability index came to 2.29. Same read-out and setting: the same measure for TRIMIGLTLVFFVQITGQPNILGY [F23G]: 3.83. The same measure, in the same setting: the result for TRIMIGLTLVFFVQITGQPNILYY [F23Y] reads 3.75.

In the case of TRIMIGLTLVFFVQITGQPNILTY [F23T], the protein stability index stood at 2.38. Turning to TRIMIGLTLVFFVQITGQPNILLY [F23L], the protein stability index came to 3.52.

TRIMIGLTLVFFVQITGQPNILSY [F23S]: the protein stability index is 2.97. Still for that read-out and setting: the result for TRIMIGLTLVFFVQITGQPNILVY [F23V] reads 2.56. Turning to TRIMIGLTLVFFVQITGQPNILMY [F23M], the protein stability index was determined as 2.94. Same read-out and setting: the same measure for TRIMIGLTLVFFVQITGQPNILCY [F23C]: 2.54. Same read-out and setting: the same measure for TRIMIGLTLVFFVQITGQPNNLFY [I21N]: 2.52; for TRIMIGLTLVFFVQITGQPNYLFY [I21Y]: 2.98. Turning to TRIMIGLTLVFFVQITGQPNFLFY [I21F], the protein stability index is 3.31. The same measure, in the same setting: the same measure for TRIMIGLTLVFFVQITGQPNSLFY [I21S]: 4.17; for TRIMIGLTLVFFVQITGQPNGLFY [I21G]: 4.22; for TRIMIGLTLVFFVQITGQPNPLFY [I21P]: 3.17.

With TRIMIGLTLVFFVQITGQPNMLFY [I21M], the protein stability index turned out to be 1.89. As for TRIMIGLTLVFFVQITGQPNCLFY [I21C], the protein stability index worked out at 2.42. Same read-out and setting: the same measure for TRIMIGLTLVFFVQITGQPNVLFY [I21V]: 2.5; for TRIMIGLTLVFFVQITGQPNELFY [I21E]: 3.88; for TRIMIGLTLVFFVQITGQPNLLFY [I21L]: 2.73. For TRIMIGLTLVFFVQITGQPNDLFY [I21D], the protein stability index is 3.69. Same read-out and setting: the same measure for TRIMIGLTLVFFVQITGQPNRLFY [I21R]: 2.73; for TRIMIGLTLVFFVQITGQPNALFY [I21A]: 2.81. On the same count and under the same terms, the result for TRIMIGLTLVFFVQITGQPNQLFY [I21Q] reads 2.1; that for TRIMIGLTLVFFVQITGQPNHLFY [I21H], 2.49; that for TRIMIGLTLVFFVQITGQPNWLFY [I21W], 3.64.

For the variant TRIMIGLTLVFFVQITGQPNTLFY [I21T], the protein stability index turned out to be 3.91. In the case of TRIMIGLTLVFFVQITGQQNILFY [P19Q], the protein stability index was determined as 2.6.

For the variant TRIMIGLTLVFFVQITGQSNILFY [P19S], the protein stability index came out at 2.39. Same read-out and setting: the same measure for TRIMIGLTLVFFVQITGQTNILFY [P19T]: 3.21; for TRIMIGLTLVFFVQITGQNNILFY [P19N]: 1.72. Still for that read-out and setting: the result for TRIMIGLTLVFFVQITGQVNILFY [P19V] reads 3.9. The same measure, in the same setting: the result for TRIMIGLTLVFFVQITGQYNILFY [P19Y] reads 2.23.

Consider TRIMIGLTLVFFVQITGQHNILFY [P19H], for which the protein stability index worked out at 3.72. Still for that read-out and setting: the result for TRIMIGLTLVFFVQITGQMNILFY [P19M] reads 2.83; that for TRIMIGLTLVFFVQITGQLNILFY [P19L], 3.42; that for TRIMIGLTLVFFVQITGQFNILFY [P19F], 3.16. Still for that read-out and setting: the same measure for TRIMIGLTLVFFVQITGQRNILFY [P19R]: 3.63; for TRIMIGLTLVFFVQITGQINILFY [P19I]: 3.15; for TRIMIGLTLVFFVQITGQGNILFY [P19G]: 2.96.
